{
  "source": "paper PMC10289004",
  "key": {"[1]": {"experiment": "RIPK1 protein level, HT-29 or HEK293", "settings": "glycan lost; control: untreated / control knockdown"}, "[2]": {"experiment": "western blot, erythrocytes of LPS-injected mice", "settings": "glycan gained; control: LPS + PBS"}, "[3]": {"experiment": "western blot, MEFs, 4h TSZ", "settings": "glycan lost; control: TSZ alone"}, "[4]": {"experiment": "RIPK1 protein level, MEFs", "settings": "glycan lost; control: untreated"}},
  "data": [
    {"protein": "RIPK1 (hRIPK1): OGT knockdown (protein) parent chain: MQPDMSLNVIKMKSSDFLESAELDSGGFGKVSLCFHRTQGLMIMKTVYKGPNCIEHNEALLEEAKMMNRLRHSRVVKLLGVIIEEGKYSLVMEYMEKGNLMHVLKAEMSTPLSVKGRIILEIIEGMCYLHGKGVIHKDLKPENILVDNDFHIKIADLGLASFKMWSKLNNEEHNELREVDGTAKKNGGTLYYMAPEHLNDVNAKPTEKSDVYSFAVVLWAIFANKEPYENAICEQQLIMCIKSGNRPDVDDITEYCPREIISLMKLCWEANPEARPTFPGIEEKFRPFYLSQLEESVEEDVKSLKKEYSNENAVVKRMQSLQLDCVAVPSSRSNSATEQPGSLHSSQGLGMGPVEESWFAPSLEHPQEENEPSLQSKLQDEANYHLYGSRMDRQTKQQPRQNVAYNREEERRRRVSHDPFAQQRPYENFQNTEGKGTAYSSAASHGNAVHQPSGLTSQPQVLYQNNGLYSSHGFGTRPLDPGTAGPRVWYRPIPSHMPSLHNIPVPETNYLGNTPTMPFSSLPPTDESIKYTIYNSTGIQIGAYNYMEIGGTSSSLLDSTNTNFKEEPAAKYQAIFDNTTSLTDKHLDPIRENLGKHWKNCARKLGFTQSQIDEIDHDYERDGLKEKVYQMLQKWVMREGIKGATVGKLAQALHQCSRIDLLSSLIYVSQN", "values": [
      {"measurement": "expression_or_secretion", "setting": "[1]", "result": "no change"}
    ]},
    {"protein": "RIPK1 (mouse): TMG (protein) parent chain: MQPDMSLDNIKMASSDLLEKTDLDSGGFGKVSLCYHRSHGFVILKKVYTGPNRAEYNEVLLEEGKMMHRLRHSRVVKLLGIIIEEGNYSLVMEYMEKGNLMHVLKTQIDVPLSLKGRIIVEAIEGMCYLHDKGVIHKDLKPENILVDRDFHIKIADLGVASFKTWSKLTKEKDNKQKEVSSTTKKNNGGTLYYMAPEHLNDINAKPTEKSDVYSFGIVLWAIFAKKEPYENVICTEQFVICIKSGNRPNVEEILEYCPREIISLMERCWQAIPEDRPTFLGIEEEFRPFYLSHFEEYVEEDVASLKKEYPDQSPVLQRMFSLQHDCVPLPPSRSNSEQPGSLHSSQGLQMGPVEESWFSSSPEYPQDENDRSVQAKLQEEASYHAFGIFAEKQTKPQPRQNEAYNREEERKRRVSHDPFAQQRARENIKSAGARGHSDPSTTSRGIAVQQLSWPATQTVWNNGLYNQHGFGTTGTGVWYPPNLSQMYSTYKTPVPETNIPGSTPTMPYFSGPVADDLIKYTIFNSSGIQIGNHNYMDVGLNSQPPNNTCKEESTSRHQAIFDNTTSLTDEHLNPIRENLGRQWKNCARKLGFTESQIDEIDHDYERDGLKEKVYQMLQKWLMREGTKGATVGKLAQALHQCCRIDLLNHLIRASQS", "values": [
      {"measurement": "other: RIPK1 Ser166 phosphorylation", "setting": "[2]", "result": "decreases"}
    ]},
    {"protein": "RIPK1 (mouse): OSMI-4 (protein) parent chain: MQPDMSLDNIKMASSDLLEKTDLDSGGFGKVSLCYHRSHGFVILKKVYTGPNRAEYNEVLLEEGKMMHRLRHSRVVKLLGIIIEEGNYSLVMEYMEKGNLMHVLKTQIDVPLSLKGRIIVEAIEGMCYLHDKGVIHKDLKPENILVDRDFHIKIADLGVASFKTWSKLTKEKDNKQKEVSSTTKKNNGGTLYYMAPEHLNDINAKPTEKSDVYSFGIVLWAIFAKKEPYENVICTEQFVICIKSGNRPNVEEILEYCPREIISLMERCWQAIPEDRPTFLGIEEEFRPFYLSHFEEYVEEDVASLKKEYPDQSPVLQRMFSLQHDCVPLPPSRSNSEQPGSLHSSQGLQMGPVEESWFSSSPEYPQDENDRSVQAKLQEEASYHAFGIFAEKQTKPQPRQNEAYNREEERKRRVSHDPFAQQRARENIKSAGARGHSDPSTTSRGIAVQQLSWPATQTVWNNGLYNQHGFGTTGTGVWYPPNLSQMYSTYKTPVPETNIPGSTPTMPYFSGPVADDLIKYTIFNSSGIQIGNHNYMDVGLNSQPPNNTCKEESTSRHQAIFDNTTSLTDEHLNPIRENLGRQWKNCARKLGFTESQIDEIDHDYERDGLKEKVYQMLQKWLMREGTKGATVGKLAQALHQCCRIDLLNHLIRASQS", "values": [
      {"measurement": "other: RIPK1 Ser166 phosphorylation", "setting": "[3]", "result": "increases"},
      {"measurement": "expression_or_secretion", "setting": "[4]", "result": "no change"}
    ]}
  ]
}
